From article PMC4511852

Key:
[1] = biological target: Avitag-RSL-His8 (RSL with biotin via the Avitag on the N-terminus and His8 on the C-terminus) (Ralstonia solanum); experiment: SEC
[2] = biological target: His8-RSL-Avitag (RSL with poly-histidine on the N-terminus and biotin via the Avitag on the C-terminus) (Ralstonia solanum); experiment: SEC

Substance	stoichiometry N [1]	stoichiometry N [2]
Avitag-RSL-His8 (RSL with biotin via the Avitag on the N-terminus and His8 on the C-terminus) (natural protein)	2	
His8-RSL-Avitag (RSL with poly-histidine on the N-terminus and biotin via the Avitag on the C-terminus) (natural protein)		3
